The record followed here is patent US6342477B1, “Remedies for thrombocytopenia” (Chugai Seiyaku Kabushiki Kaisha, priority 1996, dated 2002).

Holding throughout (type): in vivo
Assay [1] concerns C57Bl/6N mice. Briefly: Test for single-dose administration to mouse (peripheral platelet count). The note with it: single dose 10 μg/kg through the tail vein. The method, then: Nine-week old male C57Bl/6N mice as purchased from Japan Charles River Co. Ltd. were used in the experiment. (Preparation of Drug Solutions to be Administered) Human PTH(1-84) was dissolved in a citrate buffer (pH-5; containing 0.05% of Tween 80) at final concentrations of 1, 0.2 and 0.04 μg/mL so as to prepare the drug solutions to be administered.
Each of the thus prepared drug solutions and a control (citrate buffer) was administered to 15 mice through the tail vein in a volume of 10 mL/kg. […] The administration was initiated at 10 a.m.
After 3, 6 and 9 hours of the administration, five mice were picked up at random from each group of animals and blood samples were withdrawn through the orbital vein. At 10 a.m. on the same day, separate blood samples were taken from untreated mice (four in number) to obtain the pre-administration value. Peripheral corpuscle counts were obtained with an automatic corpuscle counter F-800 (TOA MEDICAL ELECTRONICS CO., LTD.)

Assay [2] concerns C57Bl/6N mice. Briefly: Test for daily administration to mouse (peripheral platelet count). The note with it: for platelet count: day 5. The method, then: Nine-week old male C57Bl/6N mice as purchased from Japan Charles River Co., Ltd. were used in the experiment.
Drug solutions to be administered were prepared basically by the same procedure as in Example 1 to give drug concentrations of […].
The mice under test were divided into four groups, which were administered subcutaneously with the three drug solutions and a control (citrate buffer) once a day in a volume of 10 mL/kg. […] The administration was initiated at 10 a.m.
(Blood Sampling and Counting Peripheral Corpuscles) On days 5, 7 and 9 after the start of administration, five or six mice were picked up at random from each group of animals and blood samples were withdrawn through the orbital vein. The sampling of blood was timed to occur 24 h of the final administration. Separate blood samples were taken from untreated mice (five in number) to obtain the value for normal mouse. Peripheral corpuscle counts were obtained with an automatic corpuscle counter F-800 (TOA MEDICAL ELECTRONICS CO., LTD.)

Assay [3] relates to C57Bl/6N mice. Description: Effectiveness of PTH derivative, daily administration to mouse (peripheral platelet count). The following applies: 200 μg/kg subcutaneously once a day for six days, blood 24 h after final administration. The method, then: Ten-week old male C57Bl/6N mice as purchased from Japan Charles River Co., Ltd. were used in the experiment.
Drug solutions to be administered were prepared basically from human PTH(1-84) and human PTH(1-34) by the same procedure as in Example 1 to give a drug concentration of 20 μg/mL.
Eighteen mice were divided into three groups, which were administered subcutaneously with the two drug solutions and a control (citrate buffer) for six days on a once-a-day basis in a volume of 10 mL/kg. […] The administration was initiated at 10 a.m.
After 24 h of the final administration, a blood sample was withdrawn from each mouse through the orbital vein. Peripheral corpuscle counts were obtained with an automatic corpuscle counter F-800 (TOA MEDICAL ELECTRONICS CO., LTD)

For assay [4], the system named is Japanese albino rabbits JW/CSK. Description: Test for daily administration to rabbit (platelet count). The following applies: 200 μg/kg subcutaneously daily. The protocol: Six 12-15 week old male Japanese albino rabbits JW/CSK were used in the experiment. The animals were individually kept in aluminum rabbit bracket cages Rb-1 (350^w×500^d×350^h mm) in a vavarium in a specific pathogen-free environment under the following conditions: temperature, 24±2° C.; humidity, 50±10%; illumination, light turned on at 5:00 and turned off at 19:00; ventilation, 15 changes/hr. Each animal was supplied with 120 g of a radiation-sterilized feed for rabbits RM (purchased from Funahashi Farm) per day. The animals were also allowed to drink to tap water ad libitum from an automatic water feeder.
Human PTH(1-84) was administered in a volume of 2 mL/vial at a concentration of 200 μg/mL. A solvent was also supplied in a volume of 2 mL/vial. Both the drug and the control were stored at −135° C. until use.
PTH (200 μg/kg) was administered to the rabbits subcutaneously at the back of their neck for 13 consecutive days. The solvent was similarly administered in the same volume as the dose of a rh-PTH solution calculated from their body weight.
Blood samples (0.5 mL) were withdrawn from the rabbits through the lateral auricular vein before the administration and on days 2, 6, 9 and 13 during the administration period. […]

B1: human PTH(1-84) (protein, UniProt P01270 32-115, looked up)
Parathyroid hormone: SVSEIQLMHNLGKHLNSMERVEWLRKKLQDVHNFVALGAPLAPRDAGSQRPRKKEDNVLVESHEKSLGEADKADVNVLTKAKSQ
modifications: Parathyroid hormone
As for B1, the “platelet counts over the control” value in the assay on C57Bl/6N mice [1] (6 h after the administration) and in the assay with C57Bl/6N mice [1] (9 h after the administration) was “significant increase” each time. The platelet count result with C57Bl/6N mice [2] (200 μg/kg subcutaneously once a day) and with C57Bl/6N mice [2] (800 μg/kg subcutaneously once a day) was “tendency to increase” throughout. Moreover, the “platelet count versus the control” value in the assay with C57Bl/6N mice [2] (all treated groups (50, 200, 800 μg/kg subcutaneously once a day), day 7) is reported as “significantly higher”. Further, the platelet increasing action result with C57Bl/6N mice [3] is “platelet increasing action”. For the same molecule, in assay [4] (day 13), the “platelet count relative to the initial level” value is “substantially returned to the initial level”. For the same molecule, in assay [4] (increase from day 2 until day 6), the “platelet count relative to the initial value” was “two to four”.
